Fold-lower affinity than for αVβ6 data for one substance are collected here from article PMC4717663.

The assay concerns the target soluble αVβ3 headpiece (human) (UniProt P06756). Nature of the assay: fluorescence polarisation.

“nonapeptide containing RGD from pro-TGF-β3” showed a fold-lower affinity than for αVβ6 of 1000 fold.
